Measurements from patent US7445894B2, “Compositions and methods for detection and isolation of phosphorylated molecules” (priority 2002, dated 2008).
Each block holds one substance with its values, some of them ahead of it.

What was measured:
[1] = test system: T1, Glycogen synthase 1-10 peptide (Calbiochem)
T1 sequence: PLSRTLSVSS

[2] = test system: T2, Abl peptide (New England Biolabs), substrate for Abl tyrosine kinase
T2 sequence: EAIYAAPFAKKK

[3] = test system: T3, Kemptide (non-phosphorylated)
T3 sequence: LRRASLG

[4] = target: pp60 c-src (pY), phosphorylated form of the pp60 c-src peptide; assay: peptide microarray on HydroGel slides; primary antibody at 1.5 µg/mL, then Alexa Fluor 647 goat anti-mouse; 632.8 nm excitation / 670 nm emission
[5] = target: pp60 c-src (pY), phosphorylated form of the pp60 c-src peptide; assay: peptide microarray on HydroGel slides; primary antibody, then Zenon One Alexa Fluor 647 mouse IgG labeling reagent; 632.8 nm excitation / 670 nm emission
[6] = test system: Bovine muscle myosin light chain
phosphopeptides = assay: Quantitative binding of phosphopeptides using streptavidin ferrofluid particles; conditions: 550 pmoles phosphopeptides, particles saturated with Compound 9, charged with GaCl3, eluted with 0.15 M ammonium hydroxide
Method: Quantitative binding of phosphopeptides was accomplished using labeled ferrofluid particles. Streptavidin ferrofluid particles were labeled with Compound 9 until saturated. After washing away unbound dye, the particles were charged with 0.1 M GaCl3, then washed with 0.1 M NaOAc, pH 4.0. 100 μL of magnetic particles (4 mg/mL) was added with standard peptide mix containing 550 picomoles of phosphopeptides. The mixture was incubated for 20 min while gently vortexing. The particles were isolated using a magnetic separator and the resulting supernatant was removed. The beads were washed 2× with 100 μL 100 mM NaOAc, pH 4.0 and the phosphopeptides were eluted with 0.15 M ammonium hydroxide. Greater than 95% of the phosphopeptides (550 pmoles) were isolated.

[7] = test system: T4, crosstide, biotinylated synthetic peptide
T4 sequence: GRPRTSSFAEG

Chain of Abl Protein Tyrosine Kinase (NEB) (P00520 whole entry): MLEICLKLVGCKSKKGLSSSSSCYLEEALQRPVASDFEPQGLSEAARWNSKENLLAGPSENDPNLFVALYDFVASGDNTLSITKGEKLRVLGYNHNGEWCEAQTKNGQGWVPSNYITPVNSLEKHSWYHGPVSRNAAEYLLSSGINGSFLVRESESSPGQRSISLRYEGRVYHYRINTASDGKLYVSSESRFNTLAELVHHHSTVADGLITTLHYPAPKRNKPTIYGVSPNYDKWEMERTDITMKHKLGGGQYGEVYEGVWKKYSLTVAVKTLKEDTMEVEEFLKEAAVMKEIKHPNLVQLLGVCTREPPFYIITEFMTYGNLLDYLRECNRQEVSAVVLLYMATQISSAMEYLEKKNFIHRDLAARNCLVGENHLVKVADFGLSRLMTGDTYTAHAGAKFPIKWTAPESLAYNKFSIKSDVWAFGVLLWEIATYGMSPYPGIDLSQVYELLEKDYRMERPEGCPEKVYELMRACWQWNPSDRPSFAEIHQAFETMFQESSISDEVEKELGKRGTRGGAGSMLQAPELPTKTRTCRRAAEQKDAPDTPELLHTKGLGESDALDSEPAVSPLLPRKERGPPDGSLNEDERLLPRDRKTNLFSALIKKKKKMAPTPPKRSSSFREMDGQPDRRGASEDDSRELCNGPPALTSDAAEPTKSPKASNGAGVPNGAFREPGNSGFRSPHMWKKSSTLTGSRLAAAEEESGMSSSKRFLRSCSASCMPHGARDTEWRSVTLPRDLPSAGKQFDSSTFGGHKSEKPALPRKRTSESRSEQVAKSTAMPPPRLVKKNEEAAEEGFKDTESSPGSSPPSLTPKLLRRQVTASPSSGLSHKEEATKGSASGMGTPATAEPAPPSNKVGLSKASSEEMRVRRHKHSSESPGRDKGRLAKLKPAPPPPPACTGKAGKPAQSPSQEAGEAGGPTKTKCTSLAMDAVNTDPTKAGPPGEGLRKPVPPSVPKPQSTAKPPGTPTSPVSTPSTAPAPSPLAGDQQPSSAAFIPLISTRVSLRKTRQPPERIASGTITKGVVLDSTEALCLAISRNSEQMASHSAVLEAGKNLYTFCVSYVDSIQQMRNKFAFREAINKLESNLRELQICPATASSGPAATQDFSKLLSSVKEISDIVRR
Chain of Akt/Protein Kinase B (P31749 whole entry): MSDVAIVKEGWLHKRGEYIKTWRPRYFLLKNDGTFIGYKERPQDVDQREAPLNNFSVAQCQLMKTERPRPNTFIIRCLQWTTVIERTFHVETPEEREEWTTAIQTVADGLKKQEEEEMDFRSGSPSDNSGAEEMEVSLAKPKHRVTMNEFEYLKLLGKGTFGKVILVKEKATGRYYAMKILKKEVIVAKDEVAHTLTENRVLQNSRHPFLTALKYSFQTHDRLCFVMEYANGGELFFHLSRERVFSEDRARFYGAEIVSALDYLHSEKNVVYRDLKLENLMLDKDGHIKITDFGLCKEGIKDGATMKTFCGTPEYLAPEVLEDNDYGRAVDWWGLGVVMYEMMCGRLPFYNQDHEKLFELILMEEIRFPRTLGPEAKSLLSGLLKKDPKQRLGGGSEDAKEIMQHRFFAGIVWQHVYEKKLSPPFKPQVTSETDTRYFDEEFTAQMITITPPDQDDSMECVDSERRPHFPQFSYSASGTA

Substance: Abl Protein Tyrosine Kinase (NEB)
- fluorescent labeling (Compound 2/Ga3+) of arrayed peptide after kinase reaction; Glycogen Synthase 1-10 not labeled [1]: Abl peptide substrate is the only fluorescently labeled peptide on the array
- fluorescent labeling (Compound 2/Ga3+) of arrayed peptide after kinase reaction [2]: Abl peptide substrate is the only fluorescently labeled peptide on the array
- fluorescent labeling (Compound 2/Ga3+) of arrayed peptide after kinase reaction with ATP-γ-S or ATP [2]: Abl peptide substrate is the only fluorescently labeled peptide on the array
- sensitivity of detection after kinase reaction [2]: Sensitivity of detection after kinase reaction is at least 0.18 ng or 0.14 pmol
- sensitivity of detection after kinase reaction with ATP (control) [2]: 0.325 pg of Abl peptide, in the control reaction using ATP, was labeled and detected
- sensitivity of detection after kinase reaction with ATP-γ-S [2]: Sensitivity of detection after kinase reaction was 2.6 pg of the peptide labeled using ATP-γ-S
- fluorescent labeling (Compound 2/Ga3+) of arrayed peptide after kinase reaction; Kemptide not labeled [3]: Abl peptide substrate is the only fluorescently labeled peptide on the array

- sensitivity of detection [4]: 5.2 pg
- sensitivity of detection [5]: 0.65 pg
Substance: phosphotyrosine monoclonal antibody P-Tyr-100 (Cell Signaling Tech.)

Substance: Calcium-Calmodulin-Dependent protein Kinase II (New England BioLabs)
- fluorescent labeling (Compound 2/Ga3+) of arrayed peptide after kinase reaction [1]: glycogen synthase peptide is the only fluorescently labeled peptide on the array
- sensitivity of detection after kinase reaction [1]: Sensitivity of detection after kinase reaction is at least 0.375 ng or 0.35 pmol
- phosphoprotein stain signal (Compound 2/Ga3+) of the gel band, kinase reaction against no-enzyme control [6]: the signal from the band in the lane corresponding to the reaction containing the enzyme 3.4-fold greater than the no-enzyme control
- fluorescent labeling (Compound 2/Ga3+) of arrayed peptide after kinase reaction; Abl peptide not labeled [2]: glycogen synthase peptide is the only fluorescently labeled peptide on the array

- phosphopeptides isolated (phosphopeptides): Greater than 95%
Substance: 4-(N-(5″-biotinylaminopentyl)aminocarbonyl)-rhod tetrapotassium salt [Compound 9]

Substance: Akt/Protein Kinase B
- fluorescent signal (Compound 2/Ga3+) of peptide charged beads, exposed to kinase against not exposed [7]: The fluorescent signal of the peptide charged beads exposed to Akt/PKB kinase was found to be 2.2-fold higher, with no overlap in standard deviation, than the control peptide charged beads not exposed to enzyme
